Laboratory results from paper PMC9482650, “Quantitative fragmentomics allow affinity mapping of interactomes” (Nature Communications, 2022).

Assays:
Experiment in all cases: holdup assay
Design in all cases: key: below the threshold = too weak to quantify, mostly under pKd 3.1 to 4
[1] = molecular target: Inadl_1, Q8NI35
[2] = molecular target: T1, PDZD7_3, Q9H5P4
T1 sequence (Q9H5P4 857-944, limits assumed, looked up): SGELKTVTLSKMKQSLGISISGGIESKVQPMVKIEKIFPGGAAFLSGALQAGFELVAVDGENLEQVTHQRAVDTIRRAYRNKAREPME

[3] = molecular target: T2, GRIP1_5, Q9Y3R0
T2 sequence (Q9Y3R0 568-668, limits assumed, looked up): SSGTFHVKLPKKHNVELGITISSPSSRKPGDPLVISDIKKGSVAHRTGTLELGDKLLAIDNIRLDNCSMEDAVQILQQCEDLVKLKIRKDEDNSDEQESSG

[4] = molecular target: LAP2, Q96RT1
Chain of LAP2, Q96RT1 (Q96RT1 other isoform, or with tags, fused parts or gaps): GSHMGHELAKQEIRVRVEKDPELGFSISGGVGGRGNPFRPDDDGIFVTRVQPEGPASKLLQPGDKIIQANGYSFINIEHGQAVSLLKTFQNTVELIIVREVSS

[5] = molecular target: NOS1, P29475
Chain of NOS1, P29475 (P29475 9-101): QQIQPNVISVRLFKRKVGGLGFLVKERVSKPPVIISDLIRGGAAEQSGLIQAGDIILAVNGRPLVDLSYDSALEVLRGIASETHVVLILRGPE

[6] = molecular target: T3, PARD3B_1, Q8TEW8
T3 sequence (Q8TEW8 196-299, limits assumed, looked up): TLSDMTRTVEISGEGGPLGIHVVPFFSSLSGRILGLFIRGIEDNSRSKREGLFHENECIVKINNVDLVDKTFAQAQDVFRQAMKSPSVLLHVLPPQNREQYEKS

[7] = molecular target: FRMPD3, Q5JV73
Chain of FRMPD3, Q5JV73 (Q5JV73 12-100): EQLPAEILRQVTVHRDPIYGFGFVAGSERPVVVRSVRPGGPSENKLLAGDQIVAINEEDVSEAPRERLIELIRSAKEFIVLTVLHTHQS

[8] = molecular target: T4, DVL3, Q92997
T4 sequence (Q92997 244-331, limits assumed, looked up): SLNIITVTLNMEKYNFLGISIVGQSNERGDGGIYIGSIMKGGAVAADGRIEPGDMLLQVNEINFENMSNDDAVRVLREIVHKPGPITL

[9] = molecular target: LIMK2, P53671
Chain of LIMK2, P53671 (P53671 143-248): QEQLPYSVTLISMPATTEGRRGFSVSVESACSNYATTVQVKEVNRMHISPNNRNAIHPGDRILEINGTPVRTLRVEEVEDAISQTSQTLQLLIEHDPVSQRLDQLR

[10] = molecular target: NHERF2_2, Q15599
Chain of NHERF2_2, Q15599 (Q15599 142-238): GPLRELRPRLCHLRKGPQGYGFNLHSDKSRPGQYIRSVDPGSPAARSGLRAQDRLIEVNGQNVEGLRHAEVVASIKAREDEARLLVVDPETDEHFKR

[11] = molecular target: IL16_3, Q14005
Chain of IL16_3, Q14005 (Q14005 1107-1207): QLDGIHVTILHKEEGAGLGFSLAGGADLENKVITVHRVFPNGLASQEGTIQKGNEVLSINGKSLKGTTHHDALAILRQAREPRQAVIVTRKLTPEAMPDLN

[12] = molecular target: T5, MPDZ_12, O75970
T5 sequence (O75970 1857-1958, limits assumed, looked up): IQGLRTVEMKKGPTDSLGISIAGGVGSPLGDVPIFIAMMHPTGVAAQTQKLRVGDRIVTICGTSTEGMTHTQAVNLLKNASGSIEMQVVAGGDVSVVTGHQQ

[13] = molecular target: T6, MPDZ_10, O75970
T6 sequence (O75970 1624-1722, limits assumed, looked up): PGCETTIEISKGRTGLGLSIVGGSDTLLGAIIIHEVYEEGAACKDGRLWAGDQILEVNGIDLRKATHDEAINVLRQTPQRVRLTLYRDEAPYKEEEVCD

[14] = molecular target: Inadl_2, Q8NI35
Chain of Inadl_2, Q8NI35 (Q8NI35 238-335): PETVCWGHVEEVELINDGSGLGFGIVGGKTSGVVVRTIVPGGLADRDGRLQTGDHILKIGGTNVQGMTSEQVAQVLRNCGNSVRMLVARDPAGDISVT

[15] = molecular target: ARHGEF12, Q9NZN5-2
Chain of ARHGEF12, Q9NZN5-2 (Q9NZN5 other isoform, or with tags, fused parts or gaps): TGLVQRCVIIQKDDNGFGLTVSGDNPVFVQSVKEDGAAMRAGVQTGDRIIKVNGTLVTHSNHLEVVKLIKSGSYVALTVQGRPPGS

[16] = molecular target: T7, APBA1_2, Q02410
T7 sequence (Q02410 742-832, limits assumed, looked up): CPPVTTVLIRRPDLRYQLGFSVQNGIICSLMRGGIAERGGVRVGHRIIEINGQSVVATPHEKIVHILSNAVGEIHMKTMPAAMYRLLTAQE

[17] = molecular target: T8, PCLO, Q9Y6V0
T8 sequence (Q9Y6V0 4491-4600, limits assumed, looked up): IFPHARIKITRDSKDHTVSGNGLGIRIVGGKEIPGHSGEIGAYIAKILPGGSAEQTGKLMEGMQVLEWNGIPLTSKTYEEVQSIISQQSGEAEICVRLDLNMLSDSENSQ

[18] = molecular target: MAST1, Q9Y2H9
Chain of MAST1, Q9Y2H9 (Q9Y2H9 962-1065): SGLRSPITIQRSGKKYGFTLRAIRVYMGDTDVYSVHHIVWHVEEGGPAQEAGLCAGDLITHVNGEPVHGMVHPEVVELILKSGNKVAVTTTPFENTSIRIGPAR

[19] = molecular target: T9, APBA2_2, Q99767
T9 sequence (Q99767 654-744, limits assumed, looked up): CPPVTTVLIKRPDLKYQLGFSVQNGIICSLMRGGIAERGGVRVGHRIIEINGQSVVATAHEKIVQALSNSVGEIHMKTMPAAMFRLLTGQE

[20] = molecular target: MAGI2_5, Q86UL8
Chain of MAGI2_5, Q86UL8 (Q86UL8 915-1017): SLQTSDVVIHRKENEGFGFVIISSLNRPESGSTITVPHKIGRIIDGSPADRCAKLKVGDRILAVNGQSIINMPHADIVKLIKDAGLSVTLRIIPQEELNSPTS

[21] = molecular target: T10, DLG3_3, Q92796
T10 sequence (Q92796 374-475, limits assumed, looked up): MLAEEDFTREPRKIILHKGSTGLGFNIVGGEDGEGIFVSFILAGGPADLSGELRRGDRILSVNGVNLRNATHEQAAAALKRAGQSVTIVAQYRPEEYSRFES

[22] = molecular target: GRASP, Q7Z6J2
Chain of GRASP, Q7Z6J2 (Q7Z6J2 96-193): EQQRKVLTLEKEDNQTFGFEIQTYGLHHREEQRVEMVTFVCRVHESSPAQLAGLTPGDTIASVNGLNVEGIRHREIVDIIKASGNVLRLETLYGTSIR

[23] = molecular target: NHERF4_4, Q86UT5
Chain of NHERF4_4, Q86UT5 (Q86UT5 464-550): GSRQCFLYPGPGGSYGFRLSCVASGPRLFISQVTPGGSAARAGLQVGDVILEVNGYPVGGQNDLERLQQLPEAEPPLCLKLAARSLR

[24] = molecular target: MAGI2_2, Q86UL8
Chain of MAGI2_2, Q86UL8 (Q86UL8 410-522): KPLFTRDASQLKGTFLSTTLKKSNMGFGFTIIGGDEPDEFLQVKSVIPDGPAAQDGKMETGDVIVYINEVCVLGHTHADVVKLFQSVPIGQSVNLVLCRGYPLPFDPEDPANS

[25] = molecular target: GORASP1, Q9BQQ3
Chain of GORASP1, Q9BQQ3 (Q9BQQ3 1-208): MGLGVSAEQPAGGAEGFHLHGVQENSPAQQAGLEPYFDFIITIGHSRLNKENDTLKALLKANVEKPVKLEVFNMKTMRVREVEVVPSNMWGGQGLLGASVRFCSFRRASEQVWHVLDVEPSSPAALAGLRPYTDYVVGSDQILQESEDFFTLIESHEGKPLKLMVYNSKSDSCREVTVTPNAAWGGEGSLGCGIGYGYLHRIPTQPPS

[26] = molecular target: T11, GRIP1_4, Q9Y3R0
T11 sequence (Q9Y3R0 467-571, limits assumed, looked up): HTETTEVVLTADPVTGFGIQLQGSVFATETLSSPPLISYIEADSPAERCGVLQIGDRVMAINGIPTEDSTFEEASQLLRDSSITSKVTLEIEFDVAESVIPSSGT

[27] = molecular target: DLG2_3, Q15700
[28] = plain residues with an end cap or a label only (N-terminal biotin on a linker: ttds)
[29] = plain residues with an end cap or a label only (N-terminal biotin on a linker: ahx)
[30] = plain residues with an end cap or a label only (N-terminal biotin on a linker: ado-ado)

Chain of Inadl_1, Q8NI35 (Q8NI35 113-229): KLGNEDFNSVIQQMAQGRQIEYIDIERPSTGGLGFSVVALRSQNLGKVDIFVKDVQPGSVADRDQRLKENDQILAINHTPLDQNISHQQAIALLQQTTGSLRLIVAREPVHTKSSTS

For SVWLRKETRV [CYSLTR2, Q9NS75], the pKd [1, 28] was “below the threshold”, the pKd [2, 28] was 4.86 and the pKd [3, 28] was “below the threshold”. The pKd [4, 28] was 4.15, the pKd [5, 28] was 3.85 and the pKd [6, 28] was “below the threshold”. The pKd [7, 28] was “below the threshold”, the pKd [8, 28] was “below the threshold” and the pKd [9, 28] was “below the threshold”. The pKd [10, 28] was 3.78, the pKd [11, 28] was “below the threshold” and the pKd [12, 28] was “below the threshold”. For the same binder, the pKd [13, 28] was 3.92, the pKd [14, 28] was “below the threshold” and the pKd [15, 28] was 4.23. The pKd [16, 28] was 3.84, the pKd [17, 28] was “below the threshold” and the pKd [18, 28] was 5.29. The pKd [19, 28] was “below the threshold”, the pKd [20, 28] was 3.93 and the pKd [21, 28] was 5.34. For the same binder, the pKd [22, 28] was “below the threshold”, the pKd [23, 28] was “below the threshold” and the pKd [24, 28] was 5.68. For the same binder, the pKd [25, 28] was 3.7, the pKd [26, 28] was “below the threshold” and the pKd [27, 28] was 5.4.

In the case of RSLEEEESQL [GRASP, Q7Z6J2], the pKd [1, 28] is reported as “below the threshold”, the pKd [2, 28] is reported as 3.98 and the pKd [3, 28] is reported as 3.87. It also gave a pKd [4, 28] of 3.69, a pKd [5, 28] of 3.6 and a pKd [6, 28] of 4.28. The pKd [7, 28] was 3.63, the pKd [8, 28] was 3.96 and the pKd [9, 28] was “below the threshold”. For the same binder, the pKd [10, 28] was 5.07, the pKd [11, 28] was “below the threshold” and the pKd [12, 28] was “below the threshold”. For the same binder, the pKd [13, 28] was “below the threshold”, the pKd [14, 28] was “below the threshold” and the pKd [15, 28] was 3.56. For the same binder, the pKd [16, 28] was 3.65, the pKd [17, 28] was 3.73 and the pKd [18, 28] was 4.83. The pKd [19, 28] was “below the threshold”, the pKd [20, 28] was 4.42 and the pKd [21, 28] was 3.81. For the same binder, the pKd [22, 28] was 3.99, the pKd [23, 28] was “below the threshold” and the pKd [24, 28] was “below the threshold”. The pKd [25, 28] was 3.72, the pKd [26, 28] was 3.5 and the pKd [27, 28] was “below the threshold”.

For SRPQRTQTQV [HPV67-E6, A4U7F2], the pKd [1, 28] was “below the threshold”, the pKd [2, 28] was 3.65 and the pKd [3, 28] was “below the threshold”. For the same binder, the pKd [4, 28] was “below the threshold”, the pKd [5, 28] was 3.81 and the pKd [6, 28] was “below the threshold”. For the same binder, the pKd [7, 28] was “below the threshold”, the pKd [8, 28] was “below the threshold” and the pKd [9, 28] was “below the threshold”. For the same binder, the pKd [10, 28] was “below the threshold”, the pKd [11, 28] was “below the threshold” and the pKd [12, 28] was “below the threshold”. For the same binder, the pKd [13, 28] was 3.4, the pKd [14, 28] was “below the threshold” and the pKd [15, 28] was 4. For the same binder, the pKd [16, 28] was 3.54, the pKd [17, 28] was “below the threshold” and the pKd [18, 28] was 4.47. The pKd [19, 28] was “below the threshold”, the pKd [20, 28] was 3.94 and the pKd [21, 28] was 4.3. The pKd [22, 28] was “below the threshold”, the pKd [23, 28] was “below the threshold” and the pKd [24, 28] was 5.32. The pKd [25, 28] was “below the threshold”, the pKd [26, 28] was “below the threshold” and the pKd [27, 28] was 4.52.

For ERKLSSESQV [LRP4, O75096], the pKd [1, 28] was “below the threshold”, the pKd [2, 28] was “below the threshold” and the pKd [3, 28] was “below the threshold”. The pKd [4, 28] was 3.74, the pKd [5, 28] was 3.81 and the pKd [6, 28] was “below the threshold”. The pKd [7, 28] was “below the threshold”, the pKd [8, 28] was “below the threshold” and the pKd [9, 28] was “below the threshold”. For the same binder, the pKd [10, 28] was “below the threshold”, the pKd [11, 28] was “below the threshold” and the pKd [12, 28] was “below the threshold”. For the same binder, the pKd [13, 28] was “below the threshold”, the pKd [14, 28] was “below the threshold” and the pKd [15, 28] was 3.7. The pKd [16, 28] was “below the threshold”, the pKd [17, 28] was “below the threshold” and the pKd [18, 28] was “below the threshold”. For the same binder, the pKd [19, 28] was “below the threshold”, the pKd [20, 28] was 4.08 and the pKd [21, 28] was 3.51. For the same binder, the pKd [22, 28] was “below the threshold”, the pKd [23, 28] was “below the threshold” and the pKd [24, 28] was 4.79. The pKd [25, 28] was “below the threshold”, the pKd [26, 28] was “below the threshold” and the pKd [27, 28] was 4.11.

HTHSYIETHV [CNKSR2, Q8WXI2] was tested, and the pKd [1, 29] was “below the threshold”, the pKd [2, 29] was 4.51 and the pKd [3, 29] was “below the threshold”. The pKd [4, 29] was 5.51, the pKd [5, 29] was 3.85 and the pKd [6, 29] was “below the threshold”. The pKd [7, 29] was “below the threshold”, the pKd [8, 29] was “below the threshold” and the pKd [9, 29] was “below the threshold”. The pKd [10, 29] was “below the threshold”, the pKd [11, 29] was “below the threshold” and the pKd [12, 29] was “below the threshold”. The pKd [13, 29] was “below the threshold”, the pKd [14, 29] was “below the threshold” and the pKd [15, 29] was 3.88. The pKd [16, 29] was 4.16, the pKd [17, 29] was “below the threshold” and the pKd [18, 29] was 4.57. For the same binder, the pKd [19, 29] was “below the threshold”, the pKd [20, 29] was 4.83 and the pKd [21, 29] was 4.01. For the same binder, the pKd [22, 29] was 3.47, the pKd [23, 29] was “below the threshold” and the pKd [24, 29] was 4.37. The pKd [25, 29] was “below the threshold”, the pKd [26, 29] was “below the threshold” and the pKd [27, 29] was 4.54.

KSRVAFFEEL [NF2, P35240] was tested, and the pKd [3, 30] was 3.62, the pKd [5, 30] was 3.58 and the pKd [6, 30] was 3.83. The pKd [7, 30] was 3.5, the pKd [8, 30] was 3.49 and the pKd [10, 30] was 3.89. For the same binder, the pKd [16, 30] was 3.75.

In the case of KRPEMTSSSV [MUC3B, MUC3A, Q02505;Q9H195], the pKd [2, 30] is reported as “below the threshold”, the pKd [4, 30] is reported as 1.89 and the pKd [5, 30] is reported as “below the threshold”. The pKd [9, 30] was “below the threshold”, the pKd [12, 30] was “below the threshold” and the pKd [15, 30] was 4. The pKd [20, 30] was 3.82, the pKd [22, 30] was 4 and the pKd [23, 30] was “below the threshold”. For the same binder, the pKd [26, 30] was “below the threshold”.
